Assay [1] concerns the target T1, recombinant human NME7-AB (human, UniProt Q9Y5B8 92-376).
T1 construct: Expressed in E. coli, lacks the DM10 domain, monomer; also called NME7 monomer
T1 sequence: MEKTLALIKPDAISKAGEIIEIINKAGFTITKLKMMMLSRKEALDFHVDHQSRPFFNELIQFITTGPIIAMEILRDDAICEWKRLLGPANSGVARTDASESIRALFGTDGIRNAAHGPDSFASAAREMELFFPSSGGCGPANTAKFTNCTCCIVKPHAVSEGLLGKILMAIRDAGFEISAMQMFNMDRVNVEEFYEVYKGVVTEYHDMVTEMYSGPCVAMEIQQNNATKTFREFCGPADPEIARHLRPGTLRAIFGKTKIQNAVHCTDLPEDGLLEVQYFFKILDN
The assay can be described thus: ELISA, PSMGFR-Cys coupled BSA on the plate, NME7 detected with B-9. As for the experimental part: (§1) The PSMGFR peptide bearing a C-terminal Cysteine (PSMGFR-Cys) was covalently coupled to BSA using Imject Maleimide activated BSA kit (Thermo Fisher). PSMGFR-Cys coupled BSA was diluted to 10 ug/mL in 0.1M carbonate/bicarbonate buffer pH 9.6 and 50 uL was added to each well of a 96 well plate. After overnight incubation at 4° C., the plate was washed twice with PBS-T and a 3% BSA solution was added to block remaining binding site on the well. After 1 h at RT the plate was washed twice with PBS-T and NME7, diluted in PBS-T+1% BSA, was added at different concentrations. After 1 h at RT the plate was washed 3× with PBS-T and anti-NM23-H7 (B-9, Santa Cruz Biotechnology), diluted in PBS-T+1% BSA, was added at 1/500 dilution. After 1 h at RT the plate was washed 3× with PBS-T and goat anti mouse-HRP, diluted in PBS-T+1% BSA, was added at 1/3333 dilution. After 1 h at RT the plate was washed 3× with PBS-T and binding of NME7 was measured at 415 nm using ABTS solution (Pierce).

The target of assay [2] is T1, recombinant human NME7-AB. In words: sandwich ELISA, PSMGFR-His bound to NME7 held by plate-bound PSMGFR, anti-Histag-HRP. As for the experimental part: as §1, with “After 1 h at RT the plate was washed 3× with PBS-T and goat anti mouse-HRP, diluted in PBS-T+1% BSA, was added at 1/3333 dilution.” left out, “(Pierce). […]” for “(Pierce).”
(§2) After 1 h at RT the plate was washed 3× with PBS-T and HisTagged PSMGFR peptide (PSMGFR-His) or biotinylated PSMGFR peptide (PSMGFR-biotin), diluted in PBS-T+1% BSA, was added at different concentration. […] After 1 h at RT the plate was washed 3× with PBS-T and binding of PSMGFR peptide to NME7 already bound to another PSMGFR peptide (which could not signal by anti-His antibody or by streptavidin) coupled BSA was measured at 415 nm using a ABTS solution (Pierce).

Assay [3] has as its target T1, recombinant human NME7-AB. In words: sandwich ELISA, PSMGFR-biotin bound to NME7 held by plate-bound PSMGFR, streptavidin-HRP. As for the experimental part:
as §1, with “After 1 h at RT the plate was washed 3× with PBS-T and goat anti mouse-HRP, diluted in PBS-T+1% BSA, was added at 1/3333 dilution.” left out, “(Pierce). […]” for “(Pierce).”
as §2

Assay [4] deals with T1, recombinant human NME7-AB. The assay can be described thus: sandwich ELISA. As for the experimental part:
as §1, with “After 1 h at RT the plate was washed 3× with PBS-T and goat anti mouse-HRP, diluted in PBS-T+1% BSA, was added at 1/3333 dilution.” left out, “(Pierce). […]” for “(Pierce).”
as §2

Groups on a side chain read outwards from the residue. No end group written: not given here.

B1: PSMGFR peptide bearing a C-terminal Cysteine, coupled to BSA (peptide)
peptide: GTINVHDVETQFNQYKTEAASRYNLTISDVSVSDVPFPFSAQSGAC([maleimide-BSA])
notes: also called PSMGFR-Cys; PSMGFR-Cys coupled BSA
For the molecule B1, the binding result in assay [1] is on record as “binds”.

B2: His-tagged PSMGFR peptide (peptide)
peptide: GTINVHDVETQFNQYKTEAASRYNLTISDVSVSDVPFPFSAQSGA
notes: also called PSMGFR-His; not shown: histidine tag
As for B2, the binding result in assay [2] is “binds”. In the case of GTINVHDVETQFNQYKTEAASRYNLTISDVSVSDVPFPFSAQSGA (also: biotinylated (position not given here), also called PSMGFR-biotin) [biotinylated PSMGFR peptide], the binding result in assay [3] is on record as “binds”.

B3: MUC1* extracellular domain peptide (PSMGFR peptide) (peptide)
peptide: GTINVHDVETQFNQYKTEAASRYNLTISDVSVSDVPFPFSAQSGA
notes: also called synthetic MUC1* peptide; surface immobilized MUC1* peptide
Turning to B3, the binding result in assay [4] was “binds”.

The values above are taken from US20220289865A1 (MINERVA BIOTECHNOLOGIES, published 2022).
